Measured values taken from PMC6455120 (2019).

Molecular target: T1, MERS-CoV spike ectodomain ECD (Middle East respiratory …, UniProt K9N5Q8)
T1 chain: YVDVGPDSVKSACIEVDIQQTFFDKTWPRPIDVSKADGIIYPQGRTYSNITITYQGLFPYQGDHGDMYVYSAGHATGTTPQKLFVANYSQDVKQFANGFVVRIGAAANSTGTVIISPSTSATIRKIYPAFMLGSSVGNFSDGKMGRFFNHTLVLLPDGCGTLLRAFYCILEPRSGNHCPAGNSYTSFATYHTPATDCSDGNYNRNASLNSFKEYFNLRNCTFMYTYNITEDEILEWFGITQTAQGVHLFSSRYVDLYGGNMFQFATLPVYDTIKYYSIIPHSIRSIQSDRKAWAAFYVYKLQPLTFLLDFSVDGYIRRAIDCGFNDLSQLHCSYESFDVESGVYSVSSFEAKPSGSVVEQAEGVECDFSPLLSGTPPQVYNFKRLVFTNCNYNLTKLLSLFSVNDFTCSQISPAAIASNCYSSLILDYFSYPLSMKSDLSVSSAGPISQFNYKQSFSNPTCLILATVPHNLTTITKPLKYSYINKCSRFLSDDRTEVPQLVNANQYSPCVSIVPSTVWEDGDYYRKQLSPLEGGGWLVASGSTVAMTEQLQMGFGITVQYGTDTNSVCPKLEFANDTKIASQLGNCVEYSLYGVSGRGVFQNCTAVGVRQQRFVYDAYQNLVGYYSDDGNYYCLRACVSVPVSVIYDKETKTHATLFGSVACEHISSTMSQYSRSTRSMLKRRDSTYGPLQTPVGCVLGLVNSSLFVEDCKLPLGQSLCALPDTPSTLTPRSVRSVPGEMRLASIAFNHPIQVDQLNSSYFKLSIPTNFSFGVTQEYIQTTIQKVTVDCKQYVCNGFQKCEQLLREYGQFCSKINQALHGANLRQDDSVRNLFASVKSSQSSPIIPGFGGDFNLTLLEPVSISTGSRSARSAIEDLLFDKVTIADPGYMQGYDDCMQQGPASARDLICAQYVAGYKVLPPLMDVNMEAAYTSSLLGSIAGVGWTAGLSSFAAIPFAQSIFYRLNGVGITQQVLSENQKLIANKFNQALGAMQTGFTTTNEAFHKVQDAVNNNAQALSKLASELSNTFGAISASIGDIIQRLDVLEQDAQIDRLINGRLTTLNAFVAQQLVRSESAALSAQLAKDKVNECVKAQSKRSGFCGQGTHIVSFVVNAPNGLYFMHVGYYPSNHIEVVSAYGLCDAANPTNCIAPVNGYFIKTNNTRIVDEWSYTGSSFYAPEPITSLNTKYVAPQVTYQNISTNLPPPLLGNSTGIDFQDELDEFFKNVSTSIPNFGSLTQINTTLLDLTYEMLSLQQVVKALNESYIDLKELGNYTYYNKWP

B1: DPP4 (protein)
chain: SRKTYTLTDYLKNTYRLKLYSLRWISDHEYLYKQENNILVFNAEYGNSSVFLENSTFDEFGHSINDYSISPDGQFILLEYNYVKQWRHSYTASYDIYDLNKRQLITEERIPNNTQWVTWSPVGHKLAYVWNNDIYVKIEPNLPSYRITWTGKEDIIYNGITDWVYEEEVFSAYSALWWSPNGTFLAYAQFNDTEVPLIEYSFYSDESLQYPKTVRVPYPKAGAVNPTVKFFVVNTDSLSSVTNATSIQITAPASMLIGDHYLCDVTWATQERISLQWLRRIQNYSVMDICDYDESSGRWNCLVARQHIEMSTTGWVGRFRPSEPHFTLDGNSFYKIISNEEGYRHICYFQIDKKDCTFITKGTWEVIGIEALTSDYLYYISNEYKGMPGGRNLYKIQLSDYTKVTCLSCELNPERCQYYSVSFSKEAKYYQLRCSGPGLPLYTLHSSVNDKGLRVLEDNSALDKMLQNVQMPSKKLDFIILNETKFWYQMILPPHFDKSKKYPLLLDVYAGPCSQKADTVFRLNWATYLASTENIIVASFDGRGSGYQGDKIMHAINRRLGTFEVEDQIEAARQFSKMGFVDNKRIAIWGWSYGGYVTSMVLGSGSGVFKCGIAVAPVSRWEYYDSVYTERYMGLPTPEDNLDHYRNSTVMSRAENFKQVEYLLIHGTADDNVHFQQSAQISKALVDVGVDFQAMWYTDEDHGIASSTAHQHIYTHMSHFIKQCFSLP
  Kd: 3.42 nM
